System: K4 kissing-loop RNA reporter
Assay: apparent KD of K4 kissing-loop reporter; higher = weaker reporter binding
Details: Eterna round: R107
Experimental: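 RNA-MaP round R107: designed RNA switches with theophylline, tryptophan, arginine or FMN aptamers are transcribed on-chip within common flanks. They are titrated with a labelled K4 kissing-loop RNA reporter in RNA-MaP buffer (100 mM Tris pH 7.5, 80 mM KCl, 4 mM MgCl2), without ligand or with the indicated ligand. Median apparent KD per design.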

[1] = input ligand: theophylline 20 uM
[2] = input ligand: tryptophan 2.4 mM
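Also: bound reporter read as fluorescence of individual clusters on recovered sequencing chips by microscopy, with normalized cluster intensities fitted with a binding model.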

Row | Sequence | apparent KD of K4 kissing-loop reporter (input ligand: FMN 200 uM) | apparent KD of K4 kissing-loop reporter (input ligand: arginine 13.2 mM) | apparent KD of K4 kissing-loop reporter (input ligand: none) | apparent KD of K4 kissing-loop reporter [1] | apparent KD of K4 kissing-loop reporter [2]
1 | GUAUCGCUAGGAGGAUAUUUCAAAUCGCCAAUAAAUGGUGAUACGGAGUGAUGUUCCGAUUUACGGAAAGAAGGCCUAGUGAUAC [FMN B 6] | 135 nM | 269 nM | 322 nM | 288 nM | 268 nM
2 | UCAUGAGAGACGGCCGCCACUGAAGCAGCUCUGUAAGAGCUGCAACAGUAGAGUGAUGUUCUGCGCAGGACCGGGUCGUCAUGAA [KL-SSTryp-B9] | 513 nM | 206 nM | 398 nM | 352 nM | 450 nM
3 | GAUUAUUAUUCUAAAUAACAUUAUUCAGAAGGAGCGUGUUUGUACACAGGUAGGUCGCUGAAUGCUAAGCCAGUGAUGUUGGUAA [JR_SSArginiA_Sub001] | 154 nM | 206 nM | 203 nM | 191 nM | 128 nM
4 | UGACUGGAUGGAAGGAGCGCUAAACUCCUAGUGAUGUUAGGGAUACGAGACAAAGUCUUGAGGCAGGUAGGUCGCCAUCUAGUCU [FiskerMod 11 - Jieux - Same State - Arginine B] | 162 nM | 130 nM | 147 nM | 157 nM | 138 nM
5 | AAGUGUGUGGCGGCCGCCACUAGAAUCCAGUGAUGUUGGAGUUAUCAAAUAAAUGAUAAUCAACAUAGGACCGGGCCAUAUAGAA [Same State - Tryptophan B (Freestyle 4)] | 690 nM | 430 nM | 626 nM | 523 nM | 469 nM
6 | CGAGAGCUCUUGUUUGGAUGUGUUUUAUGGCGAGGACCGGUACGGCCGCCACUCGGGUGAUGUUAGUGAUGUUGAUGUAGUGAUG [qzxmullin] | 118 nM | 79.6 nM | 92.7 nM | 154 nM | 91.4 nM
7 | AGGGACUCUUCGGAGUCCCGGUUAAGGGAUACCAGUGAUGUUGGUCACCCUUGGCAGCCCAGAAACCAAGCCACCAAAGGUGGCA [Omei KL Theo A Exc A v2] | 150 nM | 127 nM | 133 nM | 211 nM | 121 nM
8 | GAAGGAGACAACAUCACUACUCCUUCAGACUAGGAUAUCAGGAAACUGAGAAGGAGUCUACUUGCAGUGAUGUUGCAAGAAUAAU [[F]''-[K]'-[F]'-[F1]-[F2]-[K1]-[K2]_Design2] | 167 nM | 123 nM | 146 nM | 148 nM | 118 nM
9 | UGACUGGACUGAAGGAGCGCUAAAACUCCUAGUGAUGUUGGGAAAUAAGAGACAAAGUCUCAGCAGGUAGGUCGCAGUCUAGUCU [ArgBS 24 #SwitchBubble #StaticStem] | 481 nM | 462 nM | 503 nM | 657 nM | 526 nM
10 | ACUGGGUUGACGAAAGUCAACAAAAGAGAAGGAGCGCACGAAAGUGCAGGUAGGUCGCUCAUCCAGUGAUGUUGGAUCAUCCAGA [#SwitchBubble 17 #K4Late] | 444 nM | 679 nM | 626 nM | 392 nM | 305 nM
11 | GCGUCUUGGUCGGCCGCCACUGAGCCUAGUCACACUCUUGAGUGAUGUUGAAGAUGGUGGACUUGCAGGACCGGGACCACGGACG [theeternabot_sameState_KL_Trp_B_41] | 946 nM | 612 nM | 590 nM | 569 nM | 450 nM
12 | UGACUGGACUGAAGGAGCGAGCGAGACAAAGUCUCGAAAUCCUAGUGAUGUUAGGAAAUAACUCAGGUAGGUCGCAGUCUAGUCU [ArgBS 9 #SwitchBubble #StaticStem] | 181 nM | 152 nM | 175 nM | 170 nM | 173 nM
13 | AUAGGAGUGAUGUUCCUUAGUUUCUCCGAUACCAGUAUGGAAACAUACCCUUGGCAGCGGGAAACCGCAGAUUAGGAAACUAGUC [Theophylline A K4 6] | 208 nM | 200 nM | 210 nM | 210 nM | 194 nM
14 | GUGCGGCUAGUGAUGUUGGUUGCGUGGGAAGGAGCGCAGUAAAAUGCAGGUAGGUCGCCCGCAUCUCUGAUAAAAGAUUAAUUCA [KL-SSArg-A9] | 276 nM | 196 nM | 228 nM | 238 nM | 228 nM
15 | UUUCUACCGGGAAGGAGCGUGAAUGAUAAUGGAUAUAGUGAUGUUAUAUAUAAGAACGAAUCGCAGGUAGGUCGCCCGGAUGACU [SSArgB.S] | 311 nM | 333 nM | 352 nM | 397 nM | 310 nM
16 | GGUGACAACCAGAGGUGAUGUAUAGAAUAGCGAGGACCGGUACGGCCGCCACUCGUGAAGAGAAAGGAGUGAUGUUCCGUAAUGG [Kazoo C5] | 330 nM | 298 nM | 453 nM | 485 nM | 166 nM
17 | AUAUUAACUCAGUGAUGUUGAGUUGACGAAGGAGCGCUAGAGAUAGCAGGUAGGUCGCGUCAAUUUAAUGGAGACUAGCUUUACG [Arg A Ex t4] | 343 nM | 297 nM | 365 nM | 351 nM | 307 nM
18 | AAGUGAUGUUGUAGUGAUGUUGUGAUGUUGCAGGAUAUAUAGUGAUGUAGAAGGGUAUGUGCAGUUUUAUUUUUUGAGUGUUGAU [ttytmullin] | 72.1 nM | 31 nM | 54.8 nM | 42.2 nM | 58.1 nM
19 | AAACAAGAUGCAGGAUAUACGGACCCAGUGAUGUUGGGUAGAAUUGUCCCGGCAAUCCUUGUGGCAGUAGAAGGGCAAUAAAAGA [Gexeraora] | 271 nM | 134 nM | 169 nM | 144 nM | 151 nM
20 | GGAGGAGAGGGAAGGAGCGUGAAAGAGAAAGAAUAUAGUGAUGUUAUAUAGAAGAAAGAAUCACAGGUAGGUCGCCCGGAGGAGG [SSArgB.A] | 331 nM | 556 nM | 684 nM | 446 nM | 483 nM
21 | CGCAGUGAUGUUGCUAUUAUUCUUGAUUAACGAGGACCGGUACGGCCGCCACUCGAUUUCUAUCUUAUUUUGUGUUAUGUUGAUU [JR_ExcTryptoA_Sub008] | 306 nM | 359 nM | 333 nM | 417 nM | 225 nM
22 | CAUAGGAAACUAUGUAUCUCUCCGACUGAAGGAGCGCGUGAAAACGCAGGUAGGUCGCAGAAUUUAACGGAGAGUGAUGUUCUCU [Ex Arginine A K4 10] | 345 nM | 295 nM | 338 nM | 385 nM | 344 nM

Row | Sequence | apparent KD of K4 kissing-loop reporter (input ligand: FMN 200 uM) | apparent KD of K4 kissing-loop reporter (input ligand: arginine 13.2 mM) | apparent KD of K4 kissing-loop reporter (input ligand: none) | apparent KD of K4 kissing-loop reporter [1] | apparent KD of K4 kissing-loop reporter [2]
23 | UGGUAUAGUGAUGUUAUACCACUACCAGAUACCAGUGUAACAUUACGCCCUUGGCAGCUGAUCAGGGAACAUAUGGAGACAUAUG [Theo A Mod astro A#6] | 318 nM | 261 nM | 285 nM | 267 nM | 292 nM
24 | GGUAGCAUGGCGGCCGCCACUCAUCGCCUCCCAUCGUCGGGAAGAAUAAGUGUAGUGAUGUUACAGAGGACCGGGCCAUGCUACC | 472 nM | 386 nM | 898 nM | 494 nM | 268 nM
25 | ACCAUCAAAGAUGGCCAGGACUCCGCUGAUACCAGUGUGAAAACACUCCCUUGGCAGCAGGUGAGUGAUGUUCACAGUCCAUGGA [Omel KL Theo A SS B v3] | 145 nM | 116 nM | 150 nM | 146 nM | 143 nM
26 | AAGUAAUUAAUAAUUUAUAUAAGUUAAACAGAGGAUAUGCAUUAUUGCAGAAGGCUGAAUGCAGUGAUGUUGCAAUGAUUAUUUA [JR_SSFMNA_Sub001] | 18.9 nM | 84.7 nM | 58.3 nM | 116 nM | 60.8 nM
27 | UCGGACCCUGGAGGAUAUGAGUCGAGUGAUGUUCGGCGGUCCAUGCCGGUGCGGCGUUAUGCCCUUUUAGAAGGCCAGGGUCCGA [#2 Exclusion - FMN B Attempt #11 (HarryS)] | 277 nM | 159 nM | 196 nM | 207 nM | 212 nM
28 | GGCAGUGAUGUUGCCAGUGGCAGAUUGGAAGGAGCGUGGUGAGACACAGGUAGGUCGCUAAUUGAAAUUGCUGUCACUAAAAUGC [whbob_Ex_Arginine_A_2t130] | 297 nM | 314 nM | 307 nM | 308 nM | 242 nM
29 | GCCGCCGCGGCAGGAUAUAGGUUCAUGGAGUGAUGUUCCAUAACCCGAGUGAUGUUCGUUAUCCGCCUAGAAGGGCCGCGGCGGC | 201 nM | 166 nM | 205 nM | 177 nM | 169 nM
30 | GUAUCGCUAGGAGGAUAUUUCAAUUUGACUCUUUGAGUUAAUACGGAGUGAUGUUCCGAUUUACGGAAAGAAGGCCUAGUGAUAC [FMN B 13] | 123 nM | 203 nM | 238 nM | 219 nM | 210 nM
31 | AGUGUUAGGUUAGAUACCAGCCGUCCGUGGAUAACCCUCGGACCGCCAGUGAUGUUGGCAGGCCCUUGGCAGCUAACAGAACAGA [Beriisa] | 263 nM | 208 nM | 250 nM | 152 nM | 199 nM
32 | CAGAACAUAUAUAGAAACUAUAUAUGAGAUACCAGUCAAAUUAAAGACCCUUGGCAGCUCAGGCGAGUGAUGUUCGCAGGCUAAC [Astros-Gfrank-modulation#2] | 95.9 nM | 109 nM | 102 nM | 122 nM | 88.3 nM
33 | AAGCAGUCACUCUAAGCCAUCGAAGAUGGUCGAGGACCGGUACGGCCGCCACUCGGAGUGAUGUUCCGAAGACUGCAAAAUAAAA | 410 nM | 393 nM | 468 nM | 459 nM | 249 nM
34 | CCUAUCUCAUACGAUACCAGUCAAUGAGAUUUUAUCAAUGCCAUCACCGAGUGAUGUUCGGACCCUUGGCAGCGUAUGGGAUAGG [#02 K4 Theophylline B Exclusion] | 236 nM | 185 nM | 217 nM | 298 nM | 221 nM
35 | UAACGGCCCAGUGAUGUUGGGUGGAGGCGGCGAGGACCGGUACGGCCGCCACUCGGCGCACAGGCGGAGUGAUGUUGCGCGUAAA [Same State Tryptophan A GF 13] | 242 nM | 164 nM | 319 nM | 182 nM | 215 nM
36 | UGAUACCAGACGGCCGCCACUCCCGUAAGUCAAAGACUUACGAAGAAGGUUUUUUAGUGAUGUUGGAGGACCGGGUCUGGUAUCU [FiskerMod 19 - Jieux - Exclusion - Tryptophan B] | 258 nM | 188 nM | 210 nM | 302 nM | 1100 nM
37 | GCCAGUGAUGUUGGCGAACCAACGCAUGCAGAGGAUAUUCGUUCGGGAAGAAGGCUGCAGCGUUCUCUCCCGCAGUGAUGUUGCG [Same State FMN A GF 25] | 164 nM | 141 nM | 169 nM | 153 nM | 150 nM
38 | UGUCGUUCUAGUGAUGUUAGGACAGUUAUGAAGGAUAUACACACUCGUAGAAGGUCAGCUGCGGAAUGGCGAUUACGGUGAUUCG [theeternabot_sameState_KL_FMN_A_39] | 157 nM | 107 nM | 128 nM | 132 nM | 136 nM
39 | UGUAUGUGAUUUGAUACCAGACCAGGUGGAGGAAUCUGAGUGAUGUUCAGGUAGGUUCUGGUCCCUUGGCAGCAAAUCGCAUACU [KL-SSTheoB19] | 166 nM | 133 nM | 168 nM | 150 nM | 160 nM
40 | UUGUUUCCGACGGCCGCCACUGGUUUCUUUGUUGUAGUGAUGUUGCGGUGGAAUGAUAGCGUUAACAGGACCGGGUCGGUGAGAC [theeternabot_sameState_KL_Trp_B_42] | 1280 nM | 547 nM | 774 nM | 580 nM | 451 nM
41 | UGGACUAGUGUGAGUGAUGUUCACUUCGAUACCAGCAGAGCGAUCUGCCCUUGGCAGCGAGUUAACUGCCGAAAGGCAAGGUCCA [Theo B SS t9a] | 457 nM | 478 nM | 477 nM | 457 nM | 382 nM
42 | CAUAGGAAACUAUGUAUCUCUCUUACUGAAGGAGCGCGUGAAAACGCAGGUAGGUCGCAGAAUUUAAUAGAGAGUGAUGUUCUCU [Ex Arginine A K4 7] | 239 nM | 202 nM | 254 nM | 244 nM | 208 nM
43 | ACAUGAGUGAUGUUCAUGUGGAGCAGGGUACGAGGACCGGUACGGCCGCCACUCGAGAGUUAUGACGAGUUAAUGGCAACGAUGU [KL-Tryp-A8 #analogue] | 122 nM | 90.2 nM | 98.8 nM | 96.3 nM | 103 nM

Reference: the supplement of paper PMC9170038
